Experimental findings from the nanobody polyreactivity screen of Harvey et al. (2022) are described below.

The nature of this data set: yeast display, Sf9 membrane polyspecificity reagent, FACS + sequencing; frameworks hold sequencing errors. The method, boiled down:
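Galactose-induced (36–48 hours) yeast carrying a synthetic nanobody display library were exposed to 10% biotinylated, detergent-solubilized Sf9 membrane reagent at 4 °C for 1 hour. FACS followed streptavidin microbead enrichment, using low and high (top ~1%) gates for expression (anti-HA) and reagent binding (streptavidin). Colony PCR, MiSeq 2 × 250 sequencing and CDR-length filtering followed. Labels for polyreactivity reflect the gate of origin.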
For “QVQLVESGGGLVQAGGSLRLSCPASGRIFYKYAMGWYRQAPGKERELVAAISSTGGSTNYADSVKGRFTISRDNAKNSVYFQMNSLKPEDTAVYYCNAVSRYYYPYYYWGQGTQVTVSS”, the “polyreactivity (PSR sort gate)” value was “low polyreactivity”.
With “QVQLVESGGGLVQAGGSLRLSCPASGRIFYVYAMGWYRQAPGKERELVAAITSSGGSTNYADSVKGRFTISRDNAKNTVYLQMNSLKPEDTAVYYCAAKPYYIPTRTYSHYNFWGQGTQVTVSS” the entry was “high polyreactivity”; with “QVQLVESGGGLVQAGGSLRLSCPASGRTFILNDMGRYRQAPGKEREFVATIDWSGGSSYYADSVKGRFTISRDNAKNTVFLQMNSLKPEDTAVYYCNRAFVPVYDLDYYWGQGTQVTVSS”, “low polyreactivity”; with “QVQLVESGGGLVQAGGSLRLSCPASGSICRYYAMGWYRQAPGKERELVAVITRGGSTYYADSVKGRFTISRDNAKNTVYLQMNSLKPEDTAVYYCAADYWPAGLDRGYWGQGTQVTLSS”, “low polyreactivity”.
As to “QVQLVESGGGLVQAGGSLRLSCPASGSIFDVYTMGWYRQAPGKEMELVAAINTGGGSTYYADSVKGRFTISRDTAKNTVYLQMYSMKPEDTAVYSCAKEVSPYWTFDYWGQGTQVTVSS”, the “polyreactivity (PSR sort gate)” value is given as “low polyreactivity”.
Take “QVQLVESGGGLVQAGGSLRLSCPASGSIFPTYAMGRYRQAPGKERELVAAITTSGGNTFYADSVKGRFTISRDNAKNTVYLQMNRLKPEDTAVYYCAAYYSPYTVEYDYWGQGTLVTVSS”: the “polyreactivity (PSR sort gate)” value was “low polyreactivity”.
“QVQLVESGGGLVQAGGSLRLSCPASGSIFRFYTMGWYRQAPGKERELVASITWTGGSSYYADSVKGRFTISRDNAKNTVYLQMNSLKPEDTAVYYCAARRYLRLVGRYDYWGQGTQVTVSS”: the “polyreactivity (PSR sort gate)” value is reported as “low polyreactivity”.
With “QVQLVESGGGLVQAGGSLRLSCPASGSISRQYAMGWYRQAPGKERELVAAITVRGGSTYYADSVKGRFTISRDNAKNTVYLQMNSLKPEDTAVYYCAKYTRYSASYDYWGQGTQVTVSS” the entry was “high polyreactivity”; with “QVQLVESGGGLVQAGGSLRLSCPASGSTFEDNAMGWYRQAPGKERELVAAISRTGGRTYYADSVKGRFTISRDNAKNTVYLQMNSLKPEDTAVYYCNAVYPAQRMDYWGQGTQVTVSS”, “high polyreactivity”; with “QVQLVESGGGLVQAGGSLRLSCPASGSTFQYNPLGWYRQAPGKERELVAAISRRGGSTYYADSVKGRFTISRDNAKNTVYLQMNSLKPEDTAVYYCAVSAYKGYDYWGQGTQVTVSS”, “high polyreactivity”.
With “QVQLVESGGGLVQAGGSLRLSCPASGSTFRHYVMGRYRQAPGKERELVAAINWTSGSTNYADSVKGRFTISRDNAKNTVYFQMNSLKPEDTAVYYCAARGPVGYGWRYRPWHDYWGQGTQVTVSS” the entry was “high polyreactivity”; with “QVQLVESGGGLVQAGGSLRLSCPASGSTIPLYAMGWYRPAPGKERELVAAISRRGGRTYYADSVKGRFTISRDNAKNSVYLQMNSLKPEDTAVYYCATAQGSRVDYWGQGTQVTVSS”, “high polyreactivity”.
For the sequence “QVQLVESGGGLVQAGGSLRLSCPASGSTLWGYAMGWYRQAPGKERELVAAITSSGGITYYADSVKGRFTISRDNAKNTVYLQMNSLKPEDTAVYYCAVDYYVVGWTYLYYYRGQGTQVTVSS”, the “polyreactivity (PSR sort gate)” value is “low polyreactivity”.
With “QVQLVESGGGLVQAGGSLRLSCPASVSIFYTYAMGLYRQAPGKEREFFASNTYRGSNTYYADSVKGRFTISRDNAKNTVYLQMNSLKPEDTAVYYCAAERYLYYPPYIYETSYVYWGQGSQVTVSS” the entry was “low polyreactivity”; with “QVQLVESGGGLVQAGGSLRLSCPPSGYTISHYAMGWYRQAPGKERELVAGITWSGGSTYYADSVKGRFTISRDNAKNTVYLQMNSLKPEDTSVYFCAAKYYWYYSYSGIPLFDYWGQGTQVTVSS”, “low polyreactivity”; with “QVQLVESGGGLVQAGGSLRLSCSACGFIFPSYVMGWYRQAPGKERELVATISRSGGSTYYADSVKGRFTISRDNAKNTVYLQMNSLKPEDTAVYYCATRRRCRYSPYSPYDYWGQGTQVTVTS”, “high polyreactivity”.
With “QVQLVESGGGLVQAGGSLRLSCSASERTFYWNTMGWYRQAPGKERELVAAIRTSGGSTYYADSVKGRFTISRDNAKNTVYLQMNSLKPEDTAVYYCAAKYRNYNTRYDYWGQGTQVTVSS” the entry was “high polyreactivity”; with “QVQLVESGGGLVQAGGSLRLSCSASGFIFGKYAMGRYRQAPGKERELVAAISKSGGSTYYADSVKGRFTISRDNAKNTVYLQMNSLKPEDTAVYYCDARSLGHYGSWGQGTQVTVSS”, “high polyreactivity”; with “QVQLVESGGGLVQAGGSLRLSCSASGFIFRRYAMGWYRQAPGKEREFVAAITSSGTSTYYADSVKGRFTISRDNAKNTVYLQMNSLKPEDTAVYYCADVYQYTHYYSNYGYWGEGTQVTVSS”, “high polyreactivity”.
As for “QVQLVESGGGLVQAGGSLRLSCSASGFIFTTYAMAWYRQAPGKERELVAAIRNSDGSTYYADSVKGRFTISRDNAKNTVYLQMNSLKPVDTAVYYCAKRYRGEPGRTYGYWGQGTQVTVSS”, the “polyreactivity (PSR sort gate)” value was “high polyreactivity”.
With “QVQLVESGGGLVQAGGSLRLSCSASGFIFTYVMGWYRQAPGKERELVAVITNGGSTYYADSVKGRFTISRDNAMNTVYLQMNSLKPEDTAVYYCAARARFRYDSYYYWGQGTQVTVSS” the entry was “high polyreactivity”.
With “QVQLVESGGGLVQAGGSLRLSCSASGFTFKRYAKGLYRQAHGKERELVASISSSGGRTYYADSVKGRFTISRDNAKNTVYLQMNSLKPEDTAVYYCSASDWWGYYFWGQGTQVTVSS” the entry was “high polyreactivity”; with “QVQLVESGGGLVQAGGSLRLSCSASGGTFSYYAMGWYRQAPGKERELVASISTDGGSTYYADSVKGRFTISRDNAKNTVYLQMNSLKPEDTAVYYCNARPRGYSDRYGYWGQGTQVTVSS”, “high polyreactivity”; with “QVQLVESGGGLVQAGGSLRLSCSASGIIFGFYAMGWYRQAPGKERELVAAITNDGGNTNYADSVKGRFTISRDNAKNTVYLQMNSLKPEDTAVYYCNADRTQDRNPYTYATFDYWGQGTQVTVSS”, “low polyreactivity”.
With “QVQLVESGGGLVQAGGSLRLSCSASGIIFPTYAMGLYRQAPGKERELVAAIRWTGGSTYYADSVKGRFTISRDNAKNTVYLQMNSLKPEDTAVYYCAAAYRGRYKYYYWGQGTQVTVSS” the entry was “high polyreactivity”; with “QVQLVESGGGLVQAGGSLRLSCSASGITFFTYAMGWYRQAPGKERELVAAISGSGGSTYYADSVKGRFTISRDNAKNTVYLQMNSLKPEDTADYYCAAEYTYASPYDYWGQGTQVTVSS”, “low polyreactivity”.
“QVQLVESGGGLVQAGGSLRLSCSASGITFPDYAMGWYRQAPVKERELVATISSSGGNTYYADSVKGRFTISRDNAKNTVYLQMNSLKPEDTAVYYCATVSYYWGYDYWGQGTQVTVSS”: the “polyreactivity (PSR sort gate)” value is “low polyreactivity”.
With “QVQLVESGGGLVQAGGSLRLSCSASGITFWKYAMGWYRQAPGKERELVASISGRGGSTYYADSVKGRFTISRYKANNTVYLQMNSLKPEDTAVYYCAKYPGISGYNYWGQGTQVTVSS” the entry was “high polyreactivity”; with “QVQLVESGGGLVQAGGSLRLSCSASGITYGGNEMGWYRQAPGTESELVAGIDDGGSTNYADSVKGRFTISRDNAKNTVYLQMNSLKPEDTAVYYCAVQGHPPLGILPGFLFDYWGQGTQVTVSS”, “low polyreactivity”.
With “QVQLVESGGGLVQAGGSLRLSCSASGLTFYSNAMGWYRQAPGKERELVASISKRGATTYYADSVKGRFTISRDNAKNTVYLQMNSLKPEDTAVYYCAADLRITSYNSWGQGTQVTVSS” the entry was “low polyreactivity”.
With “QVQLVESGGGLVQAGGSLRLSCSASGNIFKRYTMGWYRQAPGKERELVAAISGGDSTNYADSVKGRFTISRDNAKKTVYLQMNCLKPEDTAVYYCAGGGLTLWHGYILGYWGQGTQVTVSS” the entry was “low polyreactivity”.
As to “QVQLVESGGGLVQAGGSLRLSCSASGRIFGAYAMGWYRQAPGKERELVAAITSAGSAHYADYVKGRFTISRDNAKNTVYLQMNSLKPEDTAVYYCAADGIARAYVLFYAYDFLYDYWGQGTQVTVSS”, the “polyreactivity (PSR sort gate)” value is given as “low polyreactivity”.
With “QVQLVESGGGLVQAGGSLRLSCSASGRIFGYNAMGWSRQAPGKERELVAAISYSGTSTYYADSVKGRFTISRDKAKNTVYLQMNSLKPEDTAVYYCATLAYRWSVAYEYLGQGTQVTVSS” the entry was “low polyreactivity”; with “QVQLVESGGGLVQAGGSLRLSCSASGRIFSVYAMGWYRQAPGKERELVAAITWRGGSTYYADSVKGRFTISRDNAKNTVYLQMNSLKPEDTAVYYCAAVESGYGSKRFYYWGQGTQVTVSS”, “high polyreactivity”; with “QVQLVESGGGLVQAGGSLRLSCSASGRIFYPYAMGWYRQAPGKERELVAAITRRTASTYYADSVKGRFTISRDNAKNTVYLQMNSLKPEDTAVYFCAADSYLKRPYYAGYYYWGQGTQVTVSS”, “high polyreactivity”.
In the case of “QVQLVESGGGLVQAGGSLRLSCSASGRTFIVYAMGWYRQAPGKERELVAAITTSVGRTYYADSVKGRFTISRDNAKNTVYLQMNSLKPEDTAVYYCAADRLDGYSEYYYWGQGTQVTVSS”, the “polyreactivity (PSR sort gate)” value is reported as “low polyreactivity”.
With “QVQLVESGGGLVQAGGSLRLSCSASGSIFDAYAMGWYRQAPGKERELVAAITTGGGSTYYADSVKGRFTISRDNAKNTVYLQMNSLKPEDTAVYYCAAEGFATDGWWYYKAYDDWGQGTQVTVSS” the entry was “low polyreactivity”.
With “QVQLVESGGGLVQAGGSLRLSCSASGSIFDRYTIGWYRQAPWKERDLVAAITFGGGSTYYADSVKVRFTISRDNAKNTDYLQRNSLKPADTAVYYCAKQRHGKLGHILGYNYWGQGTQVTVSS” the entry was “low polyreactivity”.
With “QVQLVESGGGLVQAGGSLRLSCSASGSIFYVYAMGWYRPAPGKERELVAAITSSGTTNYADSVKGRFTISRDNAKNTVYLQMNSLKPEDTAVYYCAADPDSGQVPFDYWVQGTQVTVSS” the entry was “low polyreactivity”; with “QVQLVESGGGLVQAGGSLRLSCSASGSIFYWYDMGWYRLAPGKERELVAAISSGGSTNYADSVKGRFTISRDNAKNTVYLQMISLKPEDTAVYYCNADVPLRYGPIYFRRLDYWGQGTQVTVSS”, “low polyreactivity”; with “QVQLVESGGGLVQAGGSLRLSCSASGSISGYYAMGWYRQAPGKERELVASIRYTGARTYYADSVKGRFTISRDNAKNTVYLQMNSLKPEDTAVYYCAAERSWYTWFASDYDYWGQGTQVTVSS”, “low polyreactivity”.
